# Experimental data published in patent US20200399381A1 (I MAB BIOPHARMA US, published 2020).
# T1: human IFNAR-1 protein (form not stated) (human, UniProt P17181 28-436, limits assumed)
# T1 construct: bispecific ELISA
# T1 sequence (looked up): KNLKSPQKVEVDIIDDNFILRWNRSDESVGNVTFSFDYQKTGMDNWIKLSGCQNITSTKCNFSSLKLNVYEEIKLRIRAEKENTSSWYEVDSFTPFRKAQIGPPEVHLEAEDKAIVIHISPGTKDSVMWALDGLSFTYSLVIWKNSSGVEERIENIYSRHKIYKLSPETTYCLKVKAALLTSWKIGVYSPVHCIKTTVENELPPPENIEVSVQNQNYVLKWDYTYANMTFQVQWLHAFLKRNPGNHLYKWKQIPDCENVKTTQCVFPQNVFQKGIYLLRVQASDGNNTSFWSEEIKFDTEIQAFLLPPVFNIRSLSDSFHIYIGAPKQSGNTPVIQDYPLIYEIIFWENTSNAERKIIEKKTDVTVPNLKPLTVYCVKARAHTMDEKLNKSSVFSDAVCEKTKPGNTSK
# T2: human IFNAR-1 on cells (human, UniProt P17181 28-557)
# T2 sequence (looked up): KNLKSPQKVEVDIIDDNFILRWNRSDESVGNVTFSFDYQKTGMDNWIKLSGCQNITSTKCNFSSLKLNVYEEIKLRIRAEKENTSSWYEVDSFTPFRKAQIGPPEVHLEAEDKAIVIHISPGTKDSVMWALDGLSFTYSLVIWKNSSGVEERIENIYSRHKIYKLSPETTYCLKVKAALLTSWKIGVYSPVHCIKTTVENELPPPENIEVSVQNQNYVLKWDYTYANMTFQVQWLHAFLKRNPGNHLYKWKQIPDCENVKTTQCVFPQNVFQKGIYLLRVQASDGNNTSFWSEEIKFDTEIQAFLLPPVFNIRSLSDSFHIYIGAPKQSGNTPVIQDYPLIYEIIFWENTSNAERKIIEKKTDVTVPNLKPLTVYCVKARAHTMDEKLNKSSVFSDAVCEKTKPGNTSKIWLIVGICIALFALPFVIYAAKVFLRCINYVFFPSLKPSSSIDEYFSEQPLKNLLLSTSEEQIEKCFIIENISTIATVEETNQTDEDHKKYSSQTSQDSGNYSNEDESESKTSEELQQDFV
# T3: recombinant His-tagged human IFNAR-1-ECD protein (human, UniProt P17181 28-436)
# T3 construct: extracellular domain; the Biacore text says His-tagged human IFNAR-1-ECD; also called His-tagged IFNAR-1; hIFNAR-1 protein; not shown: His tag
# T3 sequence (looked up): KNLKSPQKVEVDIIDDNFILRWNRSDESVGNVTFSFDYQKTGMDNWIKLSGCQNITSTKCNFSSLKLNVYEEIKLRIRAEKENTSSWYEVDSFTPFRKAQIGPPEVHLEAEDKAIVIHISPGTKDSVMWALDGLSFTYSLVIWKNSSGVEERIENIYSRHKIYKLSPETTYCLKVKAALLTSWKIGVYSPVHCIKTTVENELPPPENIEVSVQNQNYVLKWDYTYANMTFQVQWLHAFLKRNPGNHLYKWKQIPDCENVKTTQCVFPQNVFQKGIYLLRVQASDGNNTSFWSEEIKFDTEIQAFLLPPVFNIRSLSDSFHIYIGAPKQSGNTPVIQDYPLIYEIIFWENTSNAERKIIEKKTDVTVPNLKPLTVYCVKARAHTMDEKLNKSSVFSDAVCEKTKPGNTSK
# B1: 485G10-H1L4 (antibody, V domains shown)
# VH: QVQLVQSGAEVKKPGASVKVSCKASGFNIKDYYIHWVRQAPGQGLEWMGRIDPEDAETKYAPKFQGRVTMTADTSISTAYMELSRLRSDDTVVYYCARYHGYWALDYWGQGTLVTVSS
# VL: DIQMTQSPSSLSTSVGDRVTVTCKTSQNVGTNVAWYQQKPGKAPKPLIYSTSYRYSGVPSRFSGSGSGTDFTLTISSVQPEDFATYYCHQYFSYPYTFGPGTKLDIK
# notes: Humanized IgG expressed in HEK293; also called VH1 + VL4 (485G10)
# B2: 485G10-H2L3 (antibody, V domains shown)
# VH: QVQLVQSGAEVKKPGASVKLSCKASGFNIKDYYIHWVKQAPGQGLEWIGRIDPEDAETKYAPKFQGRVTMTADTSISTAYMELSRLRSDDTVVYYCGRYHGYWALDYWGQGTLVTVSS
# VL: DIQMTQSPSSLSTSVGDRVTITCKTSQNVGTNVAWYQQKPGKAPKPLIYSTSYRYSGVPSRFSGSGSGTDFTLTISSVQPEDFATYYCHQYFSYPYTFGPGTKLDIK
# notes: Humanized IgG expressed in HEK293; also called VH2 + VL3 (485G10)
# B3: 4D8 (antibody, V domains shown)
# VH: EVRLQQSGAELVQPGASVKLSCTGFGFNIKDYYMHWVKQRTEQGLEWIGRIDPEDAETKYAPKFQGQATITADTSSNTAYVQVSSLSSEDTAVYYCARGGNFYVMDYWGQGTSVTVSS
# VL: DIVMTQSQKFMSTSVGDRVSVTCKASQNVGTNVVWYQQKPGQSPKVLIYSASYRYSGVPDRFTGSGSGTDFTLIISNVQSEDLAEYFCQQKNSYPYTFGGGTKLEIK
# notes: Hybridoma-derived monoclonal antibody; Chimeric human IgG1 Fc versions were also made
# B4: 34H8 (antibody, V domains shown)
# VH: EVQLLQSGAELVKPGASVRLSCTASGFNIKDYYLHWVKQRTEQGLEWIGRIDPEDGETKYAPKFQGKATITTDTSSNTAYLQLSSLTSEDTAVYYCTRGGNYDVMDYWGQGTSVTVSS
# VL: DIVMTQSQKFMSTSVGDRVSVTCKASQNVGTYVVWYQQKPGQSPKALIYSASYRYSGVPDRFTGSGSGTDFTLTIGNVQSEDLAEYFCQQKNTYPFTFGGGTKLEIE
# notes: Hybridoma-derived monoclonal antibody
# B5: 485G10 chimeric antibody (antibody, V domains shown)
# VH: EVQLQQSGAELVKPGASVKLSCTGSGFNIKDYYIHWVKQRTEQGLEWIGRIDPEDGETKYAPKFQGKATITADTSSNTAYLQLSSLTSEDTVVYYCGRYHGYWALDYWGQGTSVTVSS
# VL: DIVMTQSQKFMSTSVGDRVSVTCKTSQNVGTNVAWYQQKPGQSPKPLIYSTSYRYSGVPDRFTGSGSGTDFTLIISNVQSEDLAEYFCHQYFSYPYTFGGGTLLEIK
# B6: 8G11 (antibody, V domains shown)
# VH: EVQLQQSGAELVKPGASVKLSCTGFGFNIKDYYMHWVKQRAEQGLEWIGRIDPEDGETKYAPKFQGKATITADTSSNTAYLQVSSLTSEDTAVYYCARGGNFYVMDYWGQGTSVTVSS
# VL: DIVMTQSQKFMSTSVGDRVSVTCKASQNVGTNVVWYQQKPGQSPKVLIYSASYRVSGVPDRFTGSGSGTDFTLIISNVQSEDLAEYFCQQKNNYPYTFGGGTKLEIK
# notes: Hybridoma-derived monoclonal antibody; also called mouse antibody 8G11
# Assays:
# [1] = biological target: T1, human IFNAR-1 protein (form not stated); test: affinity ranking of expressed humanized 485G10 IgGs (method not named)
# [2] = biological target: T1, human IFNAR-1 protein (form not stated); test: affinity measurement of purified IgG at different concentrations (method not named)
# human IFNAR-1 on cells [3] = biological target: T2, human IFNAR-1 on cells; test: cell-based or functional assay
# [4] = biological target: T3, recombinant His-tagged human …; test: ELISA, coated His-tagged IFNAR-1
# Procedure: This example tested the binding properties of the anti-IFNAR-1 mouse antibodies to the human IFNAR-1 proteins by ELISA assay. In short, His-tagged IFNAR-1 was coated at 0.5 μg/ml overnight and then blocked by 5% BSA in PBS. Serial diluted anti-IFNAR-1 antibodies were incubated with the coated antigen for 1 h at room temperature. The resulting plates were washed with PBS/T and incubated with goat anti-mouse IgG-HRP for 1 h at room temperature. The plates were developed with TMB substrate and analyzed by spectrophotometer at OD 450-630 nm.
# [5] = biological target: T3, recombinant His-tagged human …; test: SPR (Biacore T200), antibody captured, His-tagged IFNAR-1-ECD as analyte
# Procedure: The binding of the antibodies to recombinant His-tagged human IFNAR-1-ECD protein was examined by Biacore T200 using a capture method. The anti-IFNAR-1 antibodies were captured using anti-human Fc antibody or Protein A which were coated on chip. The serial concentrations of his-tagged human IFNAR-1-ECD protein (0-8 nM) were injected over capture antibodies at the flow rate of 30 μl/min. The dissociation phases were 600 s or 1200 s.
# human IFNAR-1 on cells [6] = biological target: T2, human IFNAR-1 on cells; test: cell-based or functional assay; remark: listed apart in the source
Binder,Kd [1] [pM],koff [1] [s⁻¹],kon [1] [M⁻¹ s⁻¹],Kd [2] [pM],koff [2] [s⁻¹],kon [2] [M⁻¹ s⁻¹],"EC50 (nM), inhibition of IFNα2b-induced SEAP reporter in HEK-Blue IFNα/β cells (human IFNAR-1 on cells [3]) [nM]",EC50 [4] [pM],Kd [5] [pM],koff [5] [s⁻¹],kon [5] [M⁻¹ s⁻¹],"EC50 (nM), IFNα2b-mediated anti-viral assay (Huh7-Con1b HCV replicon luciferase) (human IFNAR-1 on cells [6]) [nM]"
B1,660,0.000216,327000,1320,0.000259,196000,–,–,–,–,–,–
B2,848,0.000238,281000,1960,0.000366,186000,–,–,–,–,–,–
B3,–,–,–,–,–,–,0.46,67,39,9.03e-05,2.31e+06,–
B4,–,–,–,–,–,–,0.56,64,18.6,4.41e-05,2.37e+06,–
B5,–,–,–,–,–,–,–,–,–,–,–,16.3
B6,–,–,–,–,–,–,0.465,69,27.1,6.4e-05,2.36e+06,–
